Assay results: IntAct's records for PubMed 19204291

B1: Programmed cell death protein 4 (Homo sapiens), Q53EL6 (parent)
chain: MDVENEQILNVNPADPDNLSDSLFSGDEENAGTEEIKNEINGNWISASSINEARINAKAKRRLRKNSSRDSGRGDSVSDSGSDALRSGLTVPTSPKGRLLDRRSRSGKGRGLPKKGGAGGKGVWGTPGQVYDVEEVDVKDPNYDDDQENCVYETVVLPLDERAFEKTLTPIIQEYFEHGDTNEVAEMLRDLNLGEMKSGVPVLAVSLALEGKASHREMTSKLLSDLCGTVMSTTDVEKSFDKLLKDLPELALDTPRAPQLVGQFIARAVGDGILCNTYIDSYKGTVDCVQARAALDKATVLLSMSKGGKRKDSVWGSGGGQQSVNHLVKEIDMLLKEYLLSGDISEAEHCLKELEVPHFHHELVYEAIIMVLESTGESTFKMILDLLKSLWKSSTITVDQMKRGYERIYNEIPDINLDVPHSYSVLERFVEECFQAGIISKQLRDLCPSRGRKRFVSEGDGGRLKPESY

Variants of: B1
Conditions: with if4a1_human EIF4A1, P60842
Chain of if4a1_human EIF4A1, P60842 (P60842 whole entry): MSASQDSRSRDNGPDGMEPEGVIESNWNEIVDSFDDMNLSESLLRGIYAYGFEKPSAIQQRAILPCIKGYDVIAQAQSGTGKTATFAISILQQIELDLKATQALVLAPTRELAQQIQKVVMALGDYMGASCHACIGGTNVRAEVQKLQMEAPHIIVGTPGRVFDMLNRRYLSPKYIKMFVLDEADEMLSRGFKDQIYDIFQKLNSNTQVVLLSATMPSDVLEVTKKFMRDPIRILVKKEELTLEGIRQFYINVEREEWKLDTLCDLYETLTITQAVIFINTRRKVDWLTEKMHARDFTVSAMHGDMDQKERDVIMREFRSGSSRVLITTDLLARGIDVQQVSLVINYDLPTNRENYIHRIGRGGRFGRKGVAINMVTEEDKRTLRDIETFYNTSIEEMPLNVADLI

Q: E249A;D253A;D414A;D418A was tested. Which “effect of a mutation on the interaction” value did it give?
A: disrupting interaction strength
